Sequences and labels used below:
B1: AC3402 (bispecific antibody, V domains shown)
VH: EVQLLESGGGIVQPGGSLKLSCAASGFTFNTYAMNWVRQAPGKGLEWVARIRSKPNNYATYYADSVKDRFTISRDDSKNTVYLQMNNLKTEDTAVYYCVRHENFGNSYVSWFAHWGQGTLVTVSS
VL: ELVVTQEPSLTVSPGGTVTLTCRSSNGAVTSSNYANWVQQKPGQAPRGLIGGTNKRAPGTPARFSGSLLGGKAALTLSGVQPEDEAVYYCALWYPNLWVFGGGTKLTVL
B2: AC3408 (bispecific antibody, V domains shown)
VH: EVQLLESGGGIVQPGGSLKLSCAASGFTFNTYAMNWVRQAPGKGLEWVARIRSKYNEYATYYADSVKDRFTISRDDSKNTVYLQMNNLKTEDTAVYYCVRHENFGNSYVSWFAHWGQGTLVTVSS
VL: ELVVTQEPSLTVSPGGTVTLTCRSSNGAVTSSNYANWVQQKPGQAPRGLIGGTNKRAPGTPARFSGSLLGGKAALTLSGVQPEDEAVYYCALWYPNLWVFGGGTKLTVL
B3: AC3412 (bispecific antibody, V domains shown)
VH: EVQLLESGGGIVQPGGSLKLSCAASGFTFNTYAMNWVRQAPGKGLEWVARIRSKYNNYGTYYADSVKDRFTISRDDSKNTVYLQMNNLKTEDTAVYYCVRHENFGNSYVSWFAHWGQGTLVTVSS
VL: ELVVTQEPSLTVSPGGTVTLTCRSSNGAVTSSNYANWVQQKPGQAPRGLIGGTNKRAPGTPARFSGSLLGGKAALTLSGVQPEDEAVYYCALWYPNLWVFGGGTKLTVL
B4: AC3403 (bispecific antibody, V domains shown)
VH: EVQLLESGGGIVQPGGSLKLSCAASGFTFNTYAMNWVRQAPGKGLEWVARIRSKTNNYATYYADSVKDRFTISRDDSKNTVYLQMNNLKTEDTAVYYCVRHENFGNSYVSWFAHWGQGTLVTVSS
VL: ELVVTQEPSLTVSPGGTVTLTCRSSNGAVTSSNYANWVQQKPGQAPRGLIGGTNKRAPGTPARFSGSLLGGKAALTLSGVQPEDEAVYYCALWYPNLWVFGGGTKLTVL
B5: AC3411 (bispecific antibody, V domains shown)
VH: EVQLLESGGGIVQPGGSLKLSCAASGFTFNTYAMNWVRQAPGKGLEWVARIRSKYNNWATYYADSVKDRFTISRDDSKNTVYLQMNNLKTEDTAVYYCVRHENFGNSYVSWFAHWGQGTLVTVSS
VL: ELVVTQEPSLTVSPGGTVTLTCRSSNGAVTSSNYANWVQQKPGQAPRGLIGGTNKRAPGTPARFSGSLLGGKAALTLSGVQPEDEAVYYCALWYPNLWVFGGGTKLTVL
B6: AC3407 (bispecific antibody, V domains shown)
VH: EVQLLESGGGIVQPGGSLKLSCAASGFTFNTYAMNWVRQAPGKGLEWVARIRSKYNDYATYYADSVKDRFTISRDDSKNTVYLQMNNLKTEDTAVYYCVRHENFGNSYVSWFAHWGQGTLVTVSS
VL: ELVVTQEPSLTVSPGGTVTLTCRSSNGAVTSSNYANWVQQKPGQAPRGLIGGTNKRAPGTPARFSGSLLGGKAALTLSGVQPEDEAVYYCALWYPNLWVFGGGTKLTVL
B7: AC3422 (bispecific antibody, V domains shown)
VH: EVQLLESGGGIVQPGGSLKLSCAASGFTFNTYAMNWVRQAPGKGLEWVARIRSKYNNYATYYKDSVKDRFTISRDDSKNTVYLQMNNLKTEDTAVYYCVRHENFGNSYVSWFAHWGQGTLVTVSS
VL: ELVVTQEPSLTVSPGGTVTLTCRSSNGAVTSSNYANWVQQKPGQAPRGLIGGTNKRAPGTPARFSGSLLGGKAALTLSGVQPEDEAVYYCALWYPNLWVFGGGTKLTVL
B8: AC3413 (bispecific antibody, V domains shown)
VH: EVQLLESGGGIVQPGGSLKLSCAASGFTFNTYAMNWVRQAPGKGLEWVARIRSKYNNYTTYYADSVKDRFTISRDDSKNTVYLQMNNLKTEDTAVYYCVRHENFGNSYVSWFAHWGQGTLVTVSS
VL: ELVVTQEPSLTVSPGGTVTLTCRSSNGAVTSSNYANWVQQKPGQAPRGLIGGTNKRAPGTPARFSGSLLGGKAALTLSGVQPEDEAVYYCALWYPNLWVFGGGTKLTVL
B9: AC3419 (bispecific antibody, V domains shown)
VH: EVQLLESGGGIVQPGGSLKLSCAASGFTFNTYAMNWVRQAPGKGLEWVARIRSKYNNYATYQADSVKDRFTISRDDSKNTVYLQMNNLKTEDTAVYYCVRHENFGNSYVSWFAHWGQGTLVTVSS
VL: ELVVTQEPSLTVSPGGTVTLTCRSSNGAVTSSNYANWVQQKPGQAPRGLIGGTNKRAPGTPARFSGSLLGGKAALTLSGVQPEDEAVYYCALWYPNLWVFGGGTKLTVL
B10: AC3410 (bispecific antibody, V domains shown)
VH: EVQLLESGGGIVQPGGSLKLSCAASGFTFNTYAMNWVRQAPGKGLEWVARIRSKYNNFATYYADSVKDRFTISRDDSKNTVYLQMNNLKTEDTAVYYCVRHENFGNSYVSWFAHWGQGTLVTVSS
VL: ELVVTQEPSLTVSPGGTVTLTCRSSNGAVTSSNYANWVQQKPGQAPRGLIGGTNKRAPGTPARFSGSLLGGKAALTLSGVQPEDEAVYYCALWYPNLWVFGGGTKLTVL
B11: AC3421 (bispecific antibody, V domains shown)
VH: EVQLLESGGGIVQPGGSLKLSCAASGFTFNTYAMNWVRQAPGKGLEWVARIRSKYNNYATYWADSVKDRFTISRDDSKNTVYLQMNNLKTEDTAVYYCVRHENFGNSYVSWFAHWGQGTLVTVSS
VL: ELVVTQEPSLTVSPGGTVTLTCRSSNGAVTSSNYANWVQQKPGQAPRGLIGGTNKRAPGTPARFSGSLLGGKAALTLSGVQPEDEAVYYCALWYPNLWVFGGGTKLTVL
B12: AC3416 (bispecific antibody, V domains shown)
VH: EVQLLESGGGIVQPGGSLKLSCAASGFTFNTYAMNWVRQAPGKGLEWVARIRSKYNNYATTYADSVKDRFTISRDDSKNTVYLQMNNLKTEDTAVYYCVRHENFGNSYVSWFAHWGQGTLVTVSS
VL: ELVVTQEPSLTVSPGGTVTLTCRSSNGAVTSSNYANWVQQKPGQAPRGLIGGTNKRAPGTPARFSGSLLGGKAALTLSGVQPEDEAVYYCALWYPNLWVFGGGTKLTVL
B13: AC3420 (bispecific antibody, V domains shown)
VH: EVQLLESGGGIVQPGGSLKLSCAASGFTFNTYAMNWVRQAPGKGLEWVARIRSKYNNYATYGADSVKDRFTISRDDSKNTVYLQMNNLKTEDTAVYYCVRHENFGNSYVSWFAHWGQGTLVTVSS
VL: ELVVTQEPSLTVSPGGTVTLTCRSSNGAVTSSNYANWVQQKPGQAPRGLIGGTNKRAPGTPARFSGSLLGGKAALTLSGVQPEDEAVYYCALWYPNLWVFGGGTKLTVL
B14: AC3423 (bispecific antibody, V domains shown)
VH: EVQLLESGGGIVQPGGSLKLSCAASGFTFNTYAMNWVRQAPGKGLEWVARIRSKYNNYATYYPDSVKDRFTISRDDSKNTVYLQMNNLKTEDTAVYYCVRHENFGNSYVSWFAHWGQGTLVTVSS
VL: ELVVTQEPSLTVSPGGTVTLTCRSSNGAVTSSNYANWVQQKPGQAPRGLIGGTNKRAPGTPARFSGSLLGGKAALTLSGVQPEDEAVYYCALWYPNLWVFGGGTKLTVL
B15: AC3414 (bispecific antibody, V domains shown)
VH: EVQLLESGGGIVQPGGSLKLSCAASGFTFNTYAMNWVRQAPGKGLEWVARIRSKYNNYATDYADSVKDRFTISRDDSKNTVYLQMNNLKTEDTAVYYCVRHENFGNSYVSWFAHWGQGTLVTVSS
VL: ELVVTQEPSLTVSPGGTVTLTCRSSNGAVTSSNYANWVQQKPGQAPRGLIGGTNKRAPGTPARFSGSLLGGKAALTLSGVQPEDEAVYYCALWYPNLWVFGGGTKLTVL
B16: AC3415 (bispecific antibody, V domains shown)
VH: EVQLLESGGGIVQPGGSLKLSCAASGFTFNTYAMNWVRQAPGKGLEWVARIRSKYNNYATEYADSVKDRFTISRDDSKNTVYLQMNNLKTEDTAVYYCVRHENFGNSYVSWFAHWGQGTLVTVSS
VL: ELVVTQEPSLTVSPGGTVTLTCRSSNGAVTSSNYANWVQQKPGQAPRGLIGGTNKRAPGTPARFSGSLLGGKAALTLSGVQPEDEAVYYCALWYPNLWVFGGGTKLTVL
B17: AC3406 (bispecific antibody, V domains shown)
VH: EVQLLESGGGIVQPGGSLKLSCAASGFTFNTYAMNWVRQAPGKGLEWVARIRSKYENYATYYADSVKDRFTISRDDSKNTVYLQMNNLKTEDTAVYYCVRHENFGNSYVSWFAHWGQGTLVTVSS
VL: ELVVTQEPSLTVSPGGTVTLTCRSSNGAVTSSNYANWVQQKPGQAPRGLIGGTNKRAPGTPARFSGSLLGGKAALTLSGVQPEDEAVYYCALWYPNLWVFGGGTKLTVL
B18: AC3409 (bispecific antibody, V domains shown)
VH: EVQLLESGGGIVQPGGSLKLSCAASGFTFNTYAMNWVRQAPGKGLEWVARIRSKYNNGATYYADSVKDRFTISRDDSKNTVYLQMNNLKTEDTAVYYCVRHENFGNSYVSWFAHWGQGTLVTVSS
VL: ELVVTQEPSLTVSPGGTVTLTCRSSNGAVTSSNYANWVQQKPGQAPRGLIGGTNKRAPGTPARFSGSLLGGKAALTLSGVQPEDEAVYYCALWYPNLWVFGGGTKLTVL
B19: AC3404 (bispecific antibody, V domains shown)
VH: EVQLLESGGGIVQPGGSLKLSCAASGFTFNTYAMNWVRQAPGKGLEWVARIRSKWNNYATYYADSVKDRFTISRDDSKNTVYLQMNNLKTEDTAVYYCVRHENFGNSYVSWFAHWGQGTLVTVSS
VL: ELVVTQEPSLTVSPGGTVTLTCRSSNGAVTSSNYANWVQQKPGQAPRGLIGGTNKRAPGTPARFSGSLLGGKAALTLSGVQPEDEAVYYCALWYPNLWVFGGGTKLTVL
B20: AC3418 (bispecific antibody, V domains shown)
VH: EVQLLESGGGIVQPGGSLKLSCAASGFTFNTYAMNWVRQAPGKGLEWVARIRSKYNNYATYEADSVKDRFTISRDDSKNTVYLQMNNLKTEDTAVYYCVRHENFGNSYVSWFAHWGQGTLVTVSS
VL: ELVVTQEPSLTVSPGGTVTLTCRSSNGAVTSSNYANWVQQKPGQAPRGLIGGTNKRAPGTPARFSGSLLGGKAALTLSGVQPEDEAVYYCALWYPNLWVFGGGTKLTVL
B21: AC3417 (bispecific antibody, V domains shown)
VH: EVQLLESGGGIVQPGGSLKLSCAASGFTFNTYAMNWVRQAPGKGLEWVARIRSKYNNYATYDADSVKDRFTISRDDSKNTVYLQMNNLKTEDTAVYYCVRHENFGNSYVSWFAHWGQGTLVTVSS
VL: ELVVTQEPSLTVSPGGTVTLTCRSSNGAVTSSNYANWVQQKPGQAPRGLIGGTNKRAPGTPARFSGSLLGGKAALTLSGVQPEDEAVYYCALWYPNLWVFGGGTKLTVL

What is called Kd is a measure of binding affinity in units of concentration. A lower Kd goes with tighter binding.

Sequence of CD3 (P07766 23-126): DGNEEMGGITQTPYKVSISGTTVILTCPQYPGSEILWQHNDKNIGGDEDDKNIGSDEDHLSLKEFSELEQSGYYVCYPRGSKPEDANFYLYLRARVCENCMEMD

The assay has as its target CD3. Description: Octet, crude lysate. Background: In BLI a coated tip is dipped into the sample, and binding shifts an interference pattern.
On to B1, for which the dissociation constant (Kd) amounted to 33.1 nM.
The figure for B2 is 8.3 nM.
The figure for B3 is 8.2 nM; for B4 it is 11.1 nM.
The figure for B5 is 7.8 nM; for B6 it is 7.4 nM.
As for B7, the dissociation constant Kd is 8 nM.
The figure for B8 is 10.7 nM; for B9 it is 7.2 nM; for B10 it is 6.1 nM.
The figure for B11 is 37.2 nM; for B12 it is 17.9 nM.
The figure for B13 is 8.3 nM; for B14 it is 8.2 nM.
In turn, B15 gave a Kd of 939 nM.
Molecule B16 had a Kd of 183 nM.
The figure for B17 is 575 nM; for B18 it is 11.3 nM.
Turning to B19, the equilibrium dissociation constant (Kd) stood at 10.5 nM.
The figure for B20 is 9.7 nM; for B21 it is 63.2 nM.

Values taken from patent publication US20240400696A1.
